The text below walks through data of US20260374897 (published 2026).

The target of one test is human FAP ECD (human, UniProt Q12884). In words: SPR. In general terms: SPR reads the build-up and loss of mass on a sensor chip optically.
For the next test, the target named is T1, mouse FAP (cell surface) (mouse, UniProt P97321).
T1 chain: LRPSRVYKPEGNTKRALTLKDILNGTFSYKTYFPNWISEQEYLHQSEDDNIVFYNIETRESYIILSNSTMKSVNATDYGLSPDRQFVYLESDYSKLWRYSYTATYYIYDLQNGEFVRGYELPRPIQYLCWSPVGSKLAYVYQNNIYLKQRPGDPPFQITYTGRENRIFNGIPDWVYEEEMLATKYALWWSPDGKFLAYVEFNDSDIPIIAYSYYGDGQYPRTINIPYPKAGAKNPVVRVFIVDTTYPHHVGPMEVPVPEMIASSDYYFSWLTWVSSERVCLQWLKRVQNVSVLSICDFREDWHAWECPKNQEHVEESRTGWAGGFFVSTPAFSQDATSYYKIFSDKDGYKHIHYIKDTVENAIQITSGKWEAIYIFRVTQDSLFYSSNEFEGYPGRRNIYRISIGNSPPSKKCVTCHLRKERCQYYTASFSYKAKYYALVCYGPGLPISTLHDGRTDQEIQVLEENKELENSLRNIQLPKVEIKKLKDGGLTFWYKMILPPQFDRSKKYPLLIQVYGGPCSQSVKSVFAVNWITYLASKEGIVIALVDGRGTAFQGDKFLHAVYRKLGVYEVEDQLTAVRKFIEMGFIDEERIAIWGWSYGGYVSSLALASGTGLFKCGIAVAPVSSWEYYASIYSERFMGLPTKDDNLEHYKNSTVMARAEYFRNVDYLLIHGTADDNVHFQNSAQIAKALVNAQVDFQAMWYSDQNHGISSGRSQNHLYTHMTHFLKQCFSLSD
In words: FACS. (Flow cytometry measures light scatter and fluorescence of single cells or particles in a stream.)

The next test addresses human FAP (cell surface) (human, UniProt Q12884). As to the kind of experiment: FACS.

human FAP ECD, sequence (Q12884 26-760): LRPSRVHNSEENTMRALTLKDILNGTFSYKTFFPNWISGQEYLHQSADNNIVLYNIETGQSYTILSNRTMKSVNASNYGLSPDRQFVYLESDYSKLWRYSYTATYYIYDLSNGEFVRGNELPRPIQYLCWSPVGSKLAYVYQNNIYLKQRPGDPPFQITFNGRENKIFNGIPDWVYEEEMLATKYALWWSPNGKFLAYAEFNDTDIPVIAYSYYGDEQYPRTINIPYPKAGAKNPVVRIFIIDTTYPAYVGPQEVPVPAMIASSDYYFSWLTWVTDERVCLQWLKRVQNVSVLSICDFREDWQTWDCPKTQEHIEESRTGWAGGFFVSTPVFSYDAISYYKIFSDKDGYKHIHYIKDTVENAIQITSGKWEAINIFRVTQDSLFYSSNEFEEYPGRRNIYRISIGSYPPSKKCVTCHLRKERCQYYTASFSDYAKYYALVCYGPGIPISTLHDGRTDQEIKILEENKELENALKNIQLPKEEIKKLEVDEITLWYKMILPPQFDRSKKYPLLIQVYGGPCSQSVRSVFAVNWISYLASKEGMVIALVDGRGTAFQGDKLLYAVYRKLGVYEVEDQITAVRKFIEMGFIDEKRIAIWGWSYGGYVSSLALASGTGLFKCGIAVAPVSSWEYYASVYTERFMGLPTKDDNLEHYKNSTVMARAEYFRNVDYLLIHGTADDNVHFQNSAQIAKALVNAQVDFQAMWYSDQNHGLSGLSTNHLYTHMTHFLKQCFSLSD
human FAP (cell surface), sequence (Q12884 26-760): as above

B1: Ab10-A297V3-2 FAP arm (antibody, V domains shown)
VH: QVQLQQSGVEVKKPGASVTVSCRASGYSFADHFIHWVRQAPGQGFQWMGWINPNRGVTHHAQDFQGRVAMTRDMSTDTVYMELTSLRSDDTAVYYCARDASLTARPYYFYGFDVWGQGTLVTVSS
VL: DIQMTQSPSSVSASVGDRVTITCRASQGISSWLAWYQQKPGKAPKLLIYAASSLQSGVPSRFSGSGSGTDFTLTISSLQPEDFATYYCQQANSFPPAFGQGTKVEIK
For B1, binding with human FAP ECD was put at a Kd of 0.405 nM. Besides, the values for the EC50 with mouse FAP (cell surface) and with human FAP (cell surface) were 0.79 nM and 2.51 nM, respectively.

B2: Ab10-A297V3-4 FAP arm (antibody, V domains shown)
VH: QVQLQQSGVEVKKPGASVTVSCRASGYSFADHFIHWVRQAPGQGFQWMGWINPNRGVTHHAQDFQGRVAMTRDMSTDTVYMELTSLRSDDTAVYYCARDASLTARPYYFYGFDVWGQGTLVTVSS
VL: DIQMTQSPSSVSASVGDRVTITCRASQGISSWLAWYQQKPGKAPKLLIYAASSLQSGVPSRFSGSGSGTDFTLTISSLQPEDFATYYCQQANSFPPAFGQGTKVEIK
In the case of B2, in the test with human FAP ECD, the Kd (as a rule, a measure of binding affinity in units of concentration) came out at 0.378 nM. Also, the EC50 – broadly, the concentration giving half of the maximal effect – with mouse FAP (cell surface) came to 1.65 nM; with human FAP (cell surface), 1.57 nM.
